The target of data set [1] is T1, C. eutactus acyl carrier protein (T protein; gene ceuT).
T1 chain: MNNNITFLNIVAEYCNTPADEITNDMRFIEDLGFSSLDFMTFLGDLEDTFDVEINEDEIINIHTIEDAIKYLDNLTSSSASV

Data set [2] deals with T2, E. rectale acyl carrier protein (T protein; gene ereT).
T2 chain: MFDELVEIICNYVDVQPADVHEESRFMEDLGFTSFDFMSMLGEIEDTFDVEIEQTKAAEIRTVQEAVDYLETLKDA

B1: E. rectale fatty acyl-ACP synthetase (A protein; gene ereA) (protein)
chain: MLFHTIPDILSYANEAYGADDAIRWKKSKNEIESRTYSELKNDTDSFANAIEKLGKKGQHIAVIGPSSYEWIVSYLAITESGSVAVPIDASLPAADICELLDRASVRMLIFDEARSDVAEAAAKSCHDINVYVSMNSTEHCPQVLSFKGLIDDNRGSYEPAVAEDALCTIMFTSGTTGKSKGVMLTQNNLAENATCLDMKIGPHTVILSVLPIHHAYCLSMDILKGISLGSVICINDSIMRMAKNIQLFTPDMILMVPLMIETFARKLEEVRAAGLPAEPVRKKMFGERLHTICSGGAYLNPDYVDLFAEFGITILQGYGMTECSPVISTNLSWDIRKNSVGKLMPNCEAKTVDGELFVRGTSVMQGYYKMPKETEETLSDGWLHTGDLGYVDEDGYIYLTGRRKNLIITKNGENVSPEELENALSVNHLIKEIIVRESEGVIEAEIFPDREYAQNTGIADIRSALQALIDEYNVNAPAYKRIYSIKVRESEFEKTASRKIKRS
As for B1, the “adenylation activity after swapping the T protein between the C. eutactus and E. rectale pathways” value in data set [1] is “While the C protein lost activity, the A protein retained activity after swapping the T protein”. In data set [2], the “LC-MS/MS detection of fatty acid thiotemplated T protein fragment after reaction with the A protein, Sfp and lauric acid” value was “This was further confirmed by the detection of fatty acid thiotemplated T protein fragment using LC-MS/MS (FIG. 22)”; the “PPi level from ATP consumption (A and T proteins relative to negative control)” value is “Up to 30-fold increase in PPi level relative to negative control was observed with fatty acid substrates”.

B2: C. eutactus condensation domain protein (fatty acyl-transferase, C protein; gene ceuC) (protein)
chain: MPRKYYPLTPSQKIHFKPIIEFGTQQVANISICMTLQAPLDFGLLKKCIQLEYERYECLRIRFTKVDQNGEVRQYVVSRDDRDIDYENLSWLSGDDAYHRMEEWSRIPFDGDNIPMNVIKMISLPGGYNGLYIKIDHRLMDSCGAIVMVNDIMELYCHYKFGTPYPEDMASFTDMVERDLKKSTDEKRVSKDRMYWQNVLEENGEPIYSDIQGQRILQESRRLHNDKSLRAADQEINDLSVATKNYHLDAEPTQNLLDFCMNNHISMTNLILMGIRTYLSKANGGQTDISIRNYVSRRSTHAEWVSGGSRAMAYPCRTIIDPDTEFLDAVFMIQDVQNHVYRHCNYDPELLSDQMKEMFHTPPHTTYESVGLTYQPLPIRLKNPHLENISVRSMWIPNGTSKQKIYLTVMHSANDLGLNFYFRYQTASLSEQDIELFYYYLMKIIFKGIAEPEMTVGEIIECI
On to B2, for which, in data set [1], the “enzymatic production of hybrid FAA with the T and C protein pair from the same pathway and a swapped A protein” value was “Swapping the A domain, while retaining the T and C protein pair from the same pathway, permitted the enzymatic production of hybrid FAA that incorporated the substrates from two different pathways”. Further, in data set [2], the “condensation activity (enzyme-catalysed FAA product formation) after swapping the T protein between the C. eutactus and E. rectale pathways” value is on record as “While the C protein lost activity, the A protein retained activity after swapping the T protein”.

B3: C. eutactus fatty acyl-ACP synthetase (A protein; gene ceuA) (protein)
chain: MEENILEIVEKSCRIHRDVIAVKYLSHREIVEKSYGDMWDDIRKTAVILRNNGLCGTHIALVGSSSYEWICAYMAILFTGNTAVPLDANLSVSELHELLNRSGSIALFCGASRKDVITELTDDCPEMNIVFTMEKKVDIEHLEGADSNPQLAILSFEQLRNEITIPDDFAFADQDKDKMCTLMYTSGTTGKSKGVMLSQFNLAQNVENVYVNLEPGVTILSVLPIHHAFCLTMEWMKGISLGATICINDSLLHMLKNMKRFQPVGMLMVPLMVETIYKKLKDVNPLLPKKLVAKEAFGGKLEYIFCGGAYLDPMYVTEFKKYGIDILQGYGMTECSPVICSNNHRYNRPGSVGKLLDNCAVRFVDEEIQVKGTSVMSGYYDMPNETAEAFQDGWLCTGDLGYLDSDGFMYITGRKKNLIILANGENISPEELEGKLSIEPLISEIVITGDGNHLTAHIYPDQDFVDKKHMDAARTSEKLQKIIDTFNKNQPTYKRISALDIRKEPFEKSSTKKIKRNLV
Turning to B3, the “adenylation activity after swapping the T protein between the C. eutactus and E. rectale pathways” value in data set [2] is recorded as “While the C protein lost activity, the A protein retained activity after swapping the T protein”.

B4: E. rectale condensation domain protein (fatty acyl-transferase, C protein; gene ereC) (protein)
chain: MKTRKGHNVYPITVAQKFHLYYAKYCPNMAVLNIGTSLTIGTELDWNVLRDSINYAYARNEAMRIRFTRDKDGECYQYIADVDEDFKERTVDFKDFTDVTMEEAENEMQGWTQVPFEFEDSPMTKIVMIKMPDGFNGVYFLGHHMVVDAQSLIAFLKDIIEIYCNAMYEGVPFPKDMCSYIEQLKKDLAYEAGSKAQLRDREFFEKLIRQSEPIYNGIDGTAKLDAARELMHDNKLRSAFNASDDVTSALDIFHLEAEPTKRLMDFCEKYHISLACLLLMGIRTFFQKENGFDDVSVNNAIARRATLKEKKSGGTRIHSFPFRTCFSKDVRFIDAVYTIRDKQNELFRHANYNPTEYFALRSKTYPQPKAGLTYEPMSLTYQPMTLKEKGLNDLGDIKYKTKWYPNGMTTQAMYLTVMHRPEDNGLDFSFEHQVKAVSRKQLEYMYYYLCKIMFKGAENPELTIGEIIKLV
On to B4, for which the “condensation activity (enzyme-catalysed FAA product formation) after swapping the T protein between the C. eutactus and E. rectale pathways” value in data set [1] is listed as “While the C protein lost activity, the A protein retained activity after swapping the T protein”. The “enzymatic production of hybrid FAA with the T and C protein pair from the same pathway and a swapped A protein” value in data set [2] is “Swapping the A domain, while retaining the T and C protein pair from the same pathway, permitted the enzymatic production of hybrid FAA that incorporated the substrates from two different pathways”.

These data come from US20200299738.
